# Test results: patent EP3433280B1 (F. Hoffmann-La Roche AG, dated 2023)
# Molecular target: T1, HER1 extracellular domain (human, UniProt P00533 25-645)
# T1 construct: extracellular domain; also called HER1 coated chip surface
# Experiment: SPR (Biacore T100), HER1 extracellular domain amine-coupled to CM5, antibody injected at 3.125-50 nM, 1:1 Langmuir model
binder,measurement,value
"HER1-binding IgG1 antibody GA201 (antibody, V domains shown, IgG1, produced in 293-F cells; also called GA201 parental unmasked antibody; anti HER1 antibody GA201) VH: QVQLVQSGAEVKKPGSSVKVSCKASGFTFTDYKIHWVRQAPGQGLEWMGYFNPNSGYSTYAQKFQGRVTITADKSTSTAYMELSSLRSEDTAVYYCARLSPGGYYVMDAWGQGTTVTVSS VL: DIQMTQSPSSLSASVGDRVTITCRASQGINNYLNWYQQKPGKAPKRLIYNTNNLQTGVPSRFSGSGSGTEFTLTISSLQPEDFATYYCLQHNSFPTFGQGTKLEIKR",Kd,1 nM
